Reference: article PMC4510650, “TD-60 links RalA GTPase function to the CPC in mitosis” (Nature Communications, 2015)

Biological target: T1, human TD-60 with an amino-terminal streptavidin-binding protein (SBP) tag (human, UniProt Q9P258 1-522)
T1 construct: TD-60 (RCC2), human; cDNA codon optimized and made synthetically; The far-western sentence says only 'purified TD-60'; The GEF assay names it 'SBP-tagged recombinant TD-60'; far-western methods are in the Supplementary Methods; also called SBP-TD-60; RCC2; source: Sf9 cells (baculovirus, pFastBacI), purified
T1 sequence (Q9P258 whole entry): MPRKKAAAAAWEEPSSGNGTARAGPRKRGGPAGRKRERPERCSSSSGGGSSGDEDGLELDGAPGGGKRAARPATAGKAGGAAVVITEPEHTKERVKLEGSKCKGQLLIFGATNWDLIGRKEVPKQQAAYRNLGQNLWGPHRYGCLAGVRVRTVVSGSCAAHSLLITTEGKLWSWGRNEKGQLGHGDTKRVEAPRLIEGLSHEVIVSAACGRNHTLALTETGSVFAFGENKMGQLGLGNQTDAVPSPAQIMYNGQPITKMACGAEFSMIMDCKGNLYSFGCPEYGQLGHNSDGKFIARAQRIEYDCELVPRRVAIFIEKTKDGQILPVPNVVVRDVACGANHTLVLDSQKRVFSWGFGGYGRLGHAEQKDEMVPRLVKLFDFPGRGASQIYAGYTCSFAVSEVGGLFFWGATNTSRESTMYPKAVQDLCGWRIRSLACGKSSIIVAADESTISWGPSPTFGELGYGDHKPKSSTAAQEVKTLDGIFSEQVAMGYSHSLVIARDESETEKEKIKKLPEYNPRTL
Assay: far-Western; purified RalA or purified Ran tested on purified TD-60; details only in the Supplementary Methods
Conditions: both partners purified

B1: purified human RalA (cloned into pFAT2) (natural protein, UniProt P11233 1-206, looked up)
chain: MAANKPKGQNSLALHKVIMVGSGGVGKSALTLQFMYDEFVEDYEPTKADSYRKKVVLDGEEVQIDILDTAGQEDYAAIRDNYFRSGEGFLCVFSITEMESFAATADFREQILRVKEDENVPFLLVGNKSDLEDKRQVSVEEAKNRAEQWNVNYVETSAKTRANVDKVFFDLMREIRARKMEDSKEKNGKKKRKSLAKRIRERCCIL
notes: RalA, human; The RalA of the GEF assay is called GST-tagged; also called Ras-related protein RalA; source: purified; cloned into pFAT2
binding result: binds
